# Source: patent publication US20070021348
# B1: Asp 2 (transiently expressed from pcDNA3.1aMycHis) (protein)
# chain: ETDEEPEEPGRRGSFVEMVDNLRGKSGQGYYVEMTVGSPPQTLNILVDTGSSNFAVGAAPHPFLHRYYQRQLSSTYRDLRKGVYVPYTQGKWEGELGTDLVSIPHGPNVTVRANIAAITESDKFFINGSNWEGILGLAYAEIARPDDSLEPFFDSLVKQTHVPNLFSLQLCGAGFPLNQSEVLASVGGSMIIGGIDHSLYTGSLWYTPIRREWYYEVIIVRVEINGQDLKMDCKEYNYDKSIVDSGTTNLRLPKKVFEAAVKSIKAASSTEKFPDGFWLGEQLVCWQAGTTPWNIFPVISLYLMGEVTNQSFRITILPQQYLRPVEDVATSQDDCYKFAISQSSTGTVMGAVIMEGFYVVFDRARKRIGFAVSACHVHDEFRTAAVEGPFVTLDMEDCGYNIPQTDESTLMTIAYVMAAICALFMLPLCLMVCQWRCLRCLRQQHDDFADDISLLK
# B2: Asp 2 active site mutant D289N (protein)
# chain: ETDEEPEEPGRRGSFVEMVDNLRGKSGQGYYVEMTVGSPPQTLNILVDTGSSNFAVGAAPHPFLHRYYQRQLSSTYRDLRKGVYVPYTQGKWEGELGTDLVSIPHGPNVTVRANIAAITESDKFFINGSNWEGILGLAYAEIARPDDSLEPFFDSLVKQTHVPNLFSLQLCGAGFPLNQSEVLASVGGSMIIGGIDHSLYTGSLWYTPIRREWYYEVIIVRVEINGQDLKMDCKEYNYDKSIVNSGTTNLRLPKKVFEAAVKSIKAASSTEKFPDGFWLGEQLVCWQAGTTPWNIFPVISLYLMGEVTNQSFRITILPQQYLRPVEDVATSQDDCYKFAISQSSTGTVMGAVIMEGFYVVFDRARKRIGFAVSACHVHDEFRTAAVEGPFVTLDMEDCGYNIPQTDESTLMTIAYVMAAICALFMLPLCLMVCQWRCLRCLRQQHDDFADDISLLK
# B3: Asp 2 active site mutant D93N (protein)
# chain: ETDEEPEEPGRRGSFVEMVDNLRGKSGQGYYVEMTVGSPPQTLNILVNTGSSNFAVGAAPHPFLHRYYQRQLSSTYRDLRKGVYVPYTQGKWEGELGTDLVSIPHGPNVTVRANIAAITESDKFFINGSNWEGILGLAYAEIARPDDSLEPFFDSLVKQTHVPNLFSLQLCGAGFPLNQSEVLASVGGSMIIGGIDHSLYTGSLWYTPIRREWYYEVIIVRVEINGQDLKMDCKEYNYDKSIVDSGTTNLRLPKKVFEAAVKSIKAASSTEKFPDGFWLGEQLVCWQAGTTPWNIFPVISLYLMGEVTNQSFRITILPQQYLRPVEDVATSQDDCYKFAISQSSTGTVMGAVIMEGFYVVFDRARKRIGFAVSACHVHDEFRTAAVEGPFVTLDMEDCGYNIPQTDESTLMTIAYVMAAICALFMLPLCLMVCQWRCLRCLRQQHDDFADDISLLK
# Molecular target: human APP isoform 695 (in SH-SY5Y APP695 cells), P05067
# Sequence (P05067 whole entry, looked up, canonical isoform): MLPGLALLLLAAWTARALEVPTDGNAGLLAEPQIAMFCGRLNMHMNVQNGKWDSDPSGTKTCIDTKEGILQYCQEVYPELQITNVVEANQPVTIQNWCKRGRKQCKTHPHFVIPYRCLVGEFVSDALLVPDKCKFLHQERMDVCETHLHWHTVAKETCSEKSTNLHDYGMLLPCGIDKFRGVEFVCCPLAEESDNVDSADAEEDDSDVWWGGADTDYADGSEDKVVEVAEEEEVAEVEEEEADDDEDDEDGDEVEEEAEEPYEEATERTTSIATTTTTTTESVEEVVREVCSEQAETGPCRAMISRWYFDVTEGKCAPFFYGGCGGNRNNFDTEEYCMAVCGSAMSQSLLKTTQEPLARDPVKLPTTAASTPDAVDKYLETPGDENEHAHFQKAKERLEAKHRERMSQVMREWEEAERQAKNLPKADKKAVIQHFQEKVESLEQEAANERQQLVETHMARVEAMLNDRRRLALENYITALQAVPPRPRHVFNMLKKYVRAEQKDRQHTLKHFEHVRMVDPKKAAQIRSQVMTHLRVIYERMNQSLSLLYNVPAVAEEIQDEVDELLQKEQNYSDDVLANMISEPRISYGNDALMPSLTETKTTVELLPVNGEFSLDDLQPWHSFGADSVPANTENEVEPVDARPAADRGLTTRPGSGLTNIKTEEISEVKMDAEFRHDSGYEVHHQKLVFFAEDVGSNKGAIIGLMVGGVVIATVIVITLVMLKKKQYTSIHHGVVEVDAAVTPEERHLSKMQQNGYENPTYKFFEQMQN
Protein,"sAPPβ (110 kDa) in media, Western blot","sAPPβ in media, Western blot"
B1,An increase in sAPPβ (110 kDa) was observed in the media from Asp 2 transfected cells compared to empty vector pcDNA3.1MycHis transfected control cells,
B2,,There was no increase in sAPPβ secreted from cells transfected with either of the Asp-Asn mutants D93N or D289N
B3,,There was no increase in sAPPβ secreted from cells transfected with either of the Asp-Asn mutants D93N or D289N
